In US20120178908A1 (Novo Nordisk, published 2012):

Biological target: T1, hTLT-1.126-162 (TLT-1 stalk peptide) (human)
T1 construct: Made by solid phase peptide synthesis; not glycosylated; also called chain P of the crystal structure
T1 peptide: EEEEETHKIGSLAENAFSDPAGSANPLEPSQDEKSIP
Assay: crystal structure of the Fab0100:hTLT-1.126-162 complex
Source text: Crystallogr. 40, 658-674) of the CCP4 suite (Bailey,S. (1994) Acta Crystallogr. Sect. D-Biol. Crystallogr. 50, 760-763). […] Additional crystallographic refinements, using the REFMAC5 software program (Murshudov, G. N. et al. Acta Crystallogr. Sect. D-Biol. Crystallogr. 53, 240-255), followed by computer graphics inspection of the electron density maps, model corrections and building, using the COOT software program (Emsley, P. et al. Acta Crystallogr. Sect. D-Biol. Crystallogr. 60, 2126-2132), were applied. The procedure was cycled until no further significant improvements could be made to the model.
The crystal was allowed to soak for about 15 seconds, then flash frozen in liquid N₂ and during data collection kept at 100 K by a cryogenic N₂ gas stream. Crystallographic data were subsequently collected to 1.85 Å resolution at beam-line BL911-3 (Ursby, T. et al. (2004) AIP Conference Proceedings 705, 1241-1246) at MAX-lab, Lund, Sweden. Space group determination, integration and scaling of the data were made in the XDS software package. Cell parameters for the synchrotron data were determined to be 82.54, 65.32, 108.05 Å, 90°, 95.15° and 90°, for a, b, c, α, β and γ, respectively, and space group was determined to be C2. Rsym for intensities of the data set was calculated to be 6.7%. […]

- binding result: binds
B1: Fab0100 (anti-TLT-1 Fab) (Fab, V domains shown)
VH: EVKLLESGGGLVQPGGSLKLSCAASGFDFSRYWMTWVRQAPGKGLEWIGEINPDSSTINYNPSLKDKFIISRDNAKNTLYLQMSEVRSEDTALYYCASGVFTSWGQGTLVTVSA
VL: DVVMTQTPLSLPVSLGDQASISCRSSQSLVHRNGNTYFHWALQKPGQSPKLLIYKVSNRFSGVPDRFSGSGSGTDFTLKISRVEAEDLGVYFCSQSTHVPYTFGGGTKLEIKR
notes: also called Fab 0061 (Fab 0012-LC.C36A; VH.T60N-CH1)
